# According to US20190276561A1 (FUJIFILM WAKO PURE CHEMICAL, published 2019):
# T1: SORLA (neuroral sorting receptor) Vps10p domain (Homo sapiens (Human), UniProt Q92673 86-753)
# T1 construct: also called SORLA Vps10p domain
# T1 sequence: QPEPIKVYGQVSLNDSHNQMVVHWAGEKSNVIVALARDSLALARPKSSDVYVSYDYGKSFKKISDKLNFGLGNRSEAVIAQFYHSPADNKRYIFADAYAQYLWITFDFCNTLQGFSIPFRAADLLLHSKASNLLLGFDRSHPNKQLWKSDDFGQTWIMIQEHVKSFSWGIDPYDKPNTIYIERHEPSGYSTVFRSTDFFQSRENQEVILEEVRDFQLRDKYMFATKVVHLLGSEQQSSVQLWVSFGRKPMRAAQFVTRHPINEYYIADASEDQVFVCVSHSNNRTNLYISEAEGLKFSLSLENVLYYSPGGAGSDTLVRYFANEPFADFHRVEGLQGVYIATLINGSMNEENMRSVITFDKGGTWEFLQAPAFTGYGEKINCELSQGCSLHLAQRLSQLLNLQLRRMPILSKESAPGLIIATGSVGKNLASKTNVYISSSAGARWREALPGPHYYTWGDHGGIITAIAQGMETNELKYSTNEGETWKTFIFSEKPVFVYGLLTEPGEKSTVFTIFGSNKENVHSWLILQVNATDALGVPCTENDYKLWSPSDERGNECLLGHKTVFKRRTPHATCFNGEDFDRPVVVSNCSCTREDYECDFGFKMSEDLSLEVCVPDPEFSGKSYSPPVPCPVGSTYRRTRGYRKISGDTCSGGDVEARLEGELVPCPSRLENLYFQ
# T2: C8 peptide (PRGYPGQV)
# T2 construct: Antigen molecule of the P20.1 antibody
# T2 peptide: PRGYPGQV
# B1: SG/19 antibody-Fv-clasp (v2) (other)
# VH: MQVHLQQSGAELMKPGASVKISCKATGYTFTSYWIEWVKQRPGHGLEWLGEILPGSGYIHYNEKFKGKATFTTDTSSNTAYMQLSSLTSEDSAVYYCSRALALYAMDYWGQGTSVTVCSGSDYEFLKSWTVEDLQKRLLALDPMMEQEIEEIRQKYQSKRQPILDAIEAK
# VL: MDIVMTQATPSIPVTPGESVSISCRSNKSLLHSNGNTYLYWFLQRPGQSPRLLIFRMSNLASGVPDRFSGSGSGTAFTLRISRVEAADVGIYFCLQHLEYPFTFGAGTKLELKRGSDYEFLKSWTVEDLQKRLLALDPMMEQEIEEIRQKYQCKRQPILDAIEAK
# notes: also called Fv-clasp (v2) against SG/19 antibody
# B2: t8E4 antibody-Fv-clasp (v2) (other)
# VH: MKQVQLKESGPDLVQPSQTLSLTCTVSGFSLTGYGVHWVRQPPGKGLEWVGTLGWNDKKYYNSALKSRLSISRDTSKNQVFLKLSSLETEDTAMYYCTRDGGLLFAYYAMDYWGQGTSVTVCSGSDYEFLKSWTVEDLQKRLLALDPMMEQEIEEIRQKYQSKRQPILDAIEAK
# VL: MDIQMTQTTSSLSASLGDRVTFSCRASQDISNYLNWYQQKPDGTVKLLIFYTSRLHSGVPSRFSGSGSGTDYSLTIANLEQEDFATYFCQQDSKHPFTFGSGTKLEIKRGSDYEFLKSWTVEDLQKRLLALDPMMEQEIEEIRQKYQCKRQPILDAIEAK
# notes: also called Fv-clasp (v2) against t8E4 antibody
# B3: t1E4 antibody-Fv-clasp (v2) (other)
# VH: MKQGQLQQSGPELVKPGASVKISCKASGYVFSSSWMNWVKQRPGKGLEWIGRIYPGYGDTNYNGKFKGKATLTADKSSSTAYMQLSSLTSEDSAVYFCVREELGPYWYFDVWGAGTTVTVCSGSDYEFLKSWTVEDLQKRLLALDPMMEQEIEEIRQKYQSKRQPILDAIEAK
# VL: MDVVMTQTPLSLPVSLGDQASISCRSSQSLVHSNGNTYLHWYLQKPGQSPKLLIYKVSNRFSGVPDRFSGSGSGTDFTLKISRVEAEDLGVYFCSQSTHVPYTFGSGTKLEIKRGSDYEFLKSWTVEDLQKRLLALDPMMEQEIEEIRQKYQCKRQPILDAIEAK
# notes: also called Fv-clasp (v2) against t1E4 antibody
# B4: 93201 antibody-Fv-clasp (v2) (other)
# VH: MEVQLQQSGAELVKPGASVKLSCTASGFNIQDTYIHWVKQRPEQGLDWIGRIDPANGNTKYDPNFQGKATITADTSSNTAYLQLSSLASEDTAVYYCATSNYYSRGAMDYWGQGTSVTVCSGSDYEFLKSWTVEDLQKRLLALDPMMEQEIEEIRQKYQSKRQPILDAIEAK
# VL: MDIVLTQSPASLAVSLGQRATISCRASESVEYYGTNLMHWYQQKPGQPPKLLIYVASTVKSGVPARFSGSGSGTDFSLNIHPVEEDDIAMYFCQQSRKVPWTFGGGTRLEIKRGSDYEFLKSWTVEDLQKRLLALDPMMEQEIEEIRQKYQCKRQPILDAIEAK
# B5: TS2/16 antibody-Fv-clasp (v2) (other)
# VH: MDVKLVESGGGLVKPGGSLKLSCAASGFTFSSYTMSWVRQTPEKRLEWVATISSGGSYTYYPDSVKGRFTISRDKAKNTLYLQMGSLKSEDTAMYYCTRIGYDEDYAMDHWGQGTSVTVCSGSDYEFLKSWTVEDLQKRLLALDPMMEQEIEEIRQKYQSKRQPILDAIEAK
# VL: MQIVVTQRPTTMAASPGDKIIITCSVSSIISSNYLHWYSQKPGFSPKLLIYRTSNLASGVPPRFSGSGSGTSYSLTIGTMEAEDVATYYCQQGSDIPLTFGDGTKLDLKRGSDYEFLKSWTVEDLQKRLLALDPMMEQEIEEIRQKYQCKRQPILDAIEAK
# notes: also called Fv-clasp (v2) against TS2/16 antibody
# B6: P20.1 antibody-Fv-clasp (v1) obtained in the E. coli expression system (Comparative Example 1) (other)
# VH: MQIQLVQSGPEVQKPGETVRISCKASGYTFTTAGMQWVQKMPGKSLKWIGWINTRSGVPKYAEDFKGRFAFSLETSASIAYLHINNLKNEDTATYFCAREGPGFVYWGQGTLVTVSSGSDYEFLKSWTVEDLQKRLLALDPMMEQEIEEIRQKCQSKRQPILDAIEAK
# VL: MGQTVVTQESALTTSPGETVTLTCRSSTGAVTTSNYANWVQEKPDHLFTGLIVGTNNRVPGVPPRFSGSLIEDKAALTITGAQTEDEAIYFCALWYSNHWVFGGGTKLTVLGGSDYEFLKSWTVEDLQKRLLALDPMCEQEIEEIRQKYQSKRQPILDAIEAK
# notes: Fv-clasp fragment antibody: heterodimer of VH-SARAH and VL-SARAH linked by a disulfide between Cys35 and Cys24 of the two SARAH domains; also called Fv-clasp (v1) against P20.1 antibody; Fv-clasp (v1) of P20.1 antibody
# Key:
# Integrin α6β1 = molecular target: T3, Integrin α6β1 (Homo sapiens (Human), UniProt P23229 24-680; P05556 21-465); experiment: peak shift in gel filtration chromatography
# T3 construct: Antigen of the TS2/16 and SG/19 antibodies
# T3 sequence (P23229 other isoform, or with tags, fused parts or gaps limits assumed, chain 1 of 2): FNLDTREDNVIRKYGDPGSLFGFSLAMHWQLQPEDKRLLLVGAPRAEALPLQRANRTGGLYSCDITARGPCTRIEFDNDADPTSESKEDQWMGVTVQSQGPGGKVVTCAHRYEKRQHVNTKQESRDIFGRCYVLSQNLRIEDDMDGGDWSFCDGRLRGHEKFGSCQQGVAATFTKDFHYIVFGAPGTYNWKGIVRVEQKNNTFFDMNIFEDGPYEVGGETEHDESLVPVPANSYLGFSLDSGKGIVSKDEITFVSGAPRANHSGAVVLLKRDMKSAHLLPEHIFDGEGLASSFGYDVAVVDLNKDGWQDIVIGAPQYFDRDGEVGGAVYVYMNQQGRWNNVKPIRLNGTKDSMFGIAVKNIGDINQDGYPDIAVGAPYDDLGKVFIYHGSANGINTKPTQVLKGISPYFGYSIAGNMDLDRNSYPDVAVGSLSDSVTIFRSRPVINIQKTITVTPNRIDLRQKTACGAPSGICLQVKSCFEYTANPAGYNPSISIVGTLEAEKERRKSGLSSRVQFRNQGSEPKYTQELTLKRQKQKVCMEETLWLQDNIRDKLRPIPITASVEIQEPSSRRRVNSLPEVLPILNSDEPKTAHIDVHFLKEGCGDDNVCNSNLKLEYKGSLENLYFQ
# T3 sequence (P05556 other isoform, or with tags, fused parts or gaps limits assumed, chain 2 of 2): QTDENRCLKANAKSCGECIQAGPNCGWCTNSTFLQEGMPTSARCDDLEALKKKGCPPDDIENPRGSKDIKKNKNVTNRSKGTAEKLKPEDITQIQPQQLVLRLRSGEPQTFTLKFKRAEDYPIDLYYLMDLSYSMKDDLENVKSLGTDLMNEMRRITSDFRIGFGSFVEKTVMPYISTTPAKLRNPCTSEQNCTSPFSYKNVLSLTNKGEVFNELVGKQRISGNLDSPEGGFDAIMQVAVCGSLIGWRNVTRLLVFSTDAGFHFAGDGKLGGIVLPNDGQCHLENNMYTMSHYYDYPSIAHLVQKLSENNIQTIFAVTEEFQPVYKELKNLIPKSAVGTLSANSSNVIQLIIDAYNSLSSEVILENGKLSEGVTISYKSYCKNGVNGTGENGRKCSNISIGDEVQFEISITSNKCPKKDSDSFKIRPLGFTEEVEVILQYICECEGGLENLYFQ
# [1] = molecular target: T4, hepatocyte growth factor (HGF) (Homo sapiens (Human), UniProt P14210 388-728); experiment: peak shift in gel filtration chromatography
# T4 construct: Antigen of the t8E4 and t1E4 antibodies
# T4 sequence (P14210 other isoform, or with tags, fused parts or gaps limits assumed): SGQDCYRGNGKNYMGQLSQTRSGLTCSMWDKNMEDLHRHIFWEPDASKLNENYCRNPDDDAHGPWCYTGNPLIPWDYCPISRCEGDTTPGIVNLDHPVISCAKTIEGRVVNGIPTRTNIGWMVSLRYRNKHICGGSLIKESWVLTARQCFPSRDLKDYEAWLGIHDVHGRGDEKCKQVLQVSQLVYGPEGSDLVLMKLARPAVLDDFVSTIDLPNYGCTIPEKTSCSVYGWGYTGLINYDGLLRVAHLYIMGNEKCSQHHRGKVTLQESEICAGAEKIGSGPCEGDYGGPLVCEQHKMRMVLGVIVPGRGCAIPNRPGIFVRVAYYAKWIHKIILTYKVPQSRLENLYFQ
# [2] = molecular target: T4, hepatocyte growth factor (HGF); experiment: X-ray crystal structure of the complex
# [3] = molecular target: T1, SORLA (neuroral sorting receptor) …; experiment: peak shift in gel filtration chromatography
# C8 peptide (PRGYPGQV) = molecular target: T2, C8 peptide (PRGYPGQV); experiment: affinity chromatography on immobilised C8 peptide, eluted with free C8
binder,measurement,setting,value
B1,binding result,Integrin α6β1,binds
B2,binding result,[1],binds
B3,binding result,[2],binds
B4,binding result,[3],binds
B5,binding result,Integrin α6β1,binds
B6,binding result,C8 peptide (PRGYPGQV),binds
